Results published in article PMC11911400, “Mechanism of ASF1 engagement by CDAN1” (Nature Communications, 2025).
Blank lines part the entries; values can stand above or below the binder they belong to.

B2: FLAG-tagged CDIN1 (F-CDIN1) (natural protein, UniProt Q9Y2V0 1-281, looked up)
chain: MILTKAQYDEIAQCLVSVPPTRQSLRKLKQRFPSQSQATLLSIFSQEYQKHIKRTHAKHHTSEAIESYYQRYLNGVVKNGAAPVLLDLANEVDYAPSLMARLILERFLQEHEETPPSKSIINSMLRDPSQIPDGVLANQVYQCIVNDCCYGPLVDCIKHAIGHEHEVLLRDLLLEKNLSFLDEDQLRAKGYDKTPDFILQVPVAVEGHIIHWIESKASFGDECSHHAYLHDQFWSYWNRFGPGLVIYWYGFIQELDCNRERGILLKACFPTNIVTLCHSIA
notes: C15orf41); cDNA synthesized by IDT; source: Expi293, transiently transfected, in lysate and purified in complexes (anti-FLAG, Strep-Tactin); not shown: 3xFLAG, N-terminal, kept
B3: Strep-tagged CDAN1 (ST-CDAN1), wildtype (natural protein, human)
chain: MAAVLESLLREEVSVAAVVRWIARSTQGSEDNAGEAAALSSLRALRKEFVPFLLNFLREQSSRVLPQGPPTPAKTPGASAALPGRPGGPPRGSRGARSQLFPPTEAQSTAAEAPLARRGGRRRGPGPARERGGRGLEEGVSGESLPGAGGRRLRGSGSPSRPSLTLSDPPNLSNLEEFPPVGSVPPGPTGTKPSRRINPTPVSEERSLSKPKTCFTSPPISCVPSSQPSALDTSPWGLGLPPGCRSLQEEREMLRKERSKQLQQSPTPTCPTPELGSPLPSRTGSLTDEPADPARVSSRQRLELVALVYSSCIAENLVPNLFLELFFVFQLLTARRMVTAKDSDPELSPAVLDSLESPLFQSIHDCVFFAVQVLECHFQVLSNLDKGTLKLLAENERLLCFSPALQGRLRAAYEGSVAKVSLVMPPSTQAVSFQPETDNRANFSSDRAFHTFKKQRDVFYEVLREWEDHHEEPGWDFEKGLGSRIRAMMGQLSAACSHSHFVRLFQKQLLQMCQSPGGAGGTVLGEAPDVLSMLGADKLGRLWRLQERLMAPQSSGGPCPPPTFPGCQGFFRDFILSASSFQFNQHLMDSLSLKIQELNGLALPQHEPNDEDGESDVDWQGERKQFAVVLLSLRLLAKFLGFVAFLPYRGPEPPPTGELQDSILALRSQVPPVLDVRTLLQRGLQARRAVLTVPWLVEFLSFADHVVPLLEYYRDIFTLLLRLHRSLVLSQESEGKMCFLNKLLLLAVLGWLFQIPTVPEDLFFLEEGPSYAFEVDTVAPEHGLDNAPVVDQQLLYTCCPYIGELRKLLASWVSGSSGRSGGFMRKITPTTTTSLGAQPSQTSQGLQAQLAQAFFHNQPPSLRRTVEFVAERIGSNCVKHIKATLVADLVRQAESLLQEQLVTQGEEGGDPAQLLEILCSQLCPHGAQALALGREFCQRKSPGAVRALLPEETPAAVLSSAENIAVGLATEKACAWLSANITALIRREVKAAVSRTLRAQGPEPAARGERRGCSRACEHHAPLPSHLISEIKDVLSLAVGPRDPDEGVSPEHLEQLLGQLGQTLRCRQFLCPPAEQHLAKCSVELASLLVADQIPILGPPAQYRLERGQARRLLHMLLSLWKEDFQGPVPLQLLLSPRNVGLLADTRPREWDLLLFLLRELVEKGLMGRMEIEACLGSLHQAQWPGDFAEELATLSNLFLAEPHLPEPQLRACELVQPNRGTVLAQS
notes: Codanin-1 (CDAN1), human, 1227 residues; cDNA from Horizon Discovery/Dharmacon, its point mutation S421F corrected; same construct used in Expi293 and in Flp-In 293 T-REx cells; dimer by SEC-MALS and cryo-EM; also called Strep-CDAN1; WT CDAN1; source: Expi293, transiently transfected, in lysate and purified in complexes (anti-FLAG, Strep-Tactin); Flp-In 293 T-REx, transiently transfected, in …

Columns and labels:
[1] = target: B2; assay: cryo-EM structure; purified ST-CDAN1C:F-CDIN1 (C:C) complex, cross-linked with BS3, 0.78 mg/mL; ~6 Å reconstruction, no model built; conditions: both partners purified
[2] = target: B3; assay: SEC-MALS; 200 µg of each purified complex at 5 µM on SRT SEC-300 column, PBS pH 7.4 with 1 mM DTT; DAWN HELEOS II; dn/dc 0.185; conditions: both partners purified
[3] = target: the molecule itself; assay: as above
[4] = target: the molecule itself; assay: cryo-EM structure; tandem-purified C:C:A complex cross-linked with 250 µM BS3, 1 mg/mL; single-particle cryo-EM, 3.0 to 3.5 Å

binding result [1]: binds
B1: Strep-CDAN1C (CDAN1 MA3 domain, residues 1008-1227) (domain or fragment, human, UniProt Q8IWY9 1008-1227, looked up)
chain: GERRGCSRACEHHAPLPSHLISEIKDVLSLAVGPRDPDEGVSPEHLEQLLGQLGQTLRCRQFLCPPAEQHLAKCSVELASLLVADQIPILGPPAQYRLERGQARRLLHMLLSLWKEDFQGPVPLQLLLSPRNVGLLADTRPREWDLLLFLLRELVEKGLMGRMEIEACLGSLHQAQWPGDFAEELATLSNLFLAEPHLPEPQLRACELVQPNRGTVLAQS
notes: also called ST-CDAN1C; CDAN1 C-term; source: Expi293, transiently transfected, purified in complex with F-CDIN1 (anti-FLAG, Strep-Tactin); not shown: 3xStrep-II-TEV, N-terminal, kept

Binder: B2
stoichiometry N [2]: 2 CDIN1 per two CDAN1

Binder: B3
stoichiometry N [3]: 2 CDAN1 per complex
stoichiometry N [4]: 2
